# Measured values as given in the Immune Epitope Database (IEDB).
# Experiments:
# HLA-A*80:01 = experiment: IEDB peptide-MHC binding, purified MHC/direct/fluorescence; filed as Kd, often an IC50 or EC50 that approximates it; ≥ and ≤ were set here for values at or beyond the usual limits of such assays
# HLA-A*01:01 [1] = experiment: IEDB peptide-MHC binding, purified MHC/competitive/fluorescence; filed as Kd, often an IC50 or EC50 that approximates it; ≥ and ≤ were set here for values at or beyond the usual limits of such assays; conditions: source organism: Homo sapiens
# HLA-B*15:01 [2] = experiment: IEDB peptide-MHC binding, purified MHC/competitive/radioactivity; filed as Kd, often an IC50 or EC50 that approximates it; ≥ and ≤ were set here for values at or beyond the usual limits of such assays; conditions: source organism: Dengue virus 2 Jamaica/1409/1983
# HLA-A*32:01 = experiment: as above; conditions: source organism: Dengue virus 2 Jamaica/1409/1983
# HLA-B*57:01 [3] = experiment: as above; conditions: source organism: Dengue virus 2 Jamaica/1409/1983
# HLA-A*30:02 = experiment: as above; conditions: source organism: Dengue virus 2 Jamaica/1409/1983
# HLA-A*68:02 = experiment: IEDB peptide-MHC binding, purified MHC/direct/fluorescence; filed as Kd, often an IC50 or EC50 that approximates it; ≥ and ≤ were set here for values at or beyond the usual limits of such assays
# HLA-B*08:01 = experiment: as above
# HLA-A*69:01 = experiment: as above
# HLA-A*26:03 = experiment: as above; conditions: source organism: Ravn virus - Ravn, Kenya, 1987
# HLA-A*02:01 [4] = experiment: as above
# HLA-B*07:02 = experiment: as above
# HLA-A*31:01 = experiment: as above
# HLA-B*57:01 [5] = experiment: as above
# HLA-A*01:01 [6] = experiment: as above
# HLA-A*24:03 = experiment: as above
# HLA-B*58:01 = experiment: as above
# HLA-A*11:01 = experiment: as above
# HLA-A*24:02 = experiment: as above
# HLA-B*15:17 = experiment: as above
# HLA-A*23:01 = experiment: as above; conditions: source organism: Marburg virus - Musoke, Kenya, 1980
# HLA-B*08:03 = experiment: as above; conditions: source organism: Ravn virus - Ravn, Kenya, 1987
# HLA-B*18:01 [7] = experiment: IEDB peptide-MHC binding, purified MHC/competitive/fluorescence; filed as Kd, often an IC50 or EC50 that approximates it; ≥ and ≤ were set here for values at or beyond the usual limits of such assays; conditions: source organism: Orthomarburgvirus marburgense
# HLA-B*15:01 [8] = experiment: as above; conditions: source organism: Orthomarburgvirus marburgense
# HLA-B*35:01 = experiment: as above
# HLA-A*02:06 = experiment: as above; conditions: source organism: Orthomarburgvirus marburgense
# HLA-A*26:02 = experiment: as above; conditions: source organism: Orthomarburgvirus marburgense
# HLA-C*12:03 = experiment: IEDB peptide-MHC binding, purified MHC/direct/fluorescence; filed as Kd, often an IC50 or EC50 that approximates it; ≥ and ≤ were set here for values at or beyond the usual limits of such assays; conditions: source organism: Vaccinia virus WR
# HLA-C*08:02 = experiment: as above; conditions: source organism: Vaccinia virus WR
# HLA-C*04:01 = experiment: as above
# HLA-C*06:02 = experiment: as above; conditions: source organism: Vaccinia virus WR
# HLA-C*15:02 = experiment: as above; conditions: source organism: Vaccinia virus WR
# HLA-A*02:01 [9] = experiment: IEDB peptide-MHC binding, purified MHC/competitive/fluorescence; filed as Kd, often an IC50 or EC50 that approximates it; ≥ and ≤ were set here for values at or beyond the usual limits of such assays
# HLA-C*05:01 = experiment: IEDB peptide-MHC binding, purified MHC/direct/fluorescence; filed as Kd, often an IC50 or EC50 that approximates it; ≥ and ≤ were set here for values at or beyond the usual limits of such assays; conditions: source organism: Escherichia coli B171
# HLA-A*03:01 = experiment: as above
# HLA-B*44:02 = experiment: as above
# HLA-B*40:01 [10] = experiment: as above
# HLA-B*15:01 [11] = experiment: as above
# HLA-B*46:01 = experiment: as above; conditions: source organism: Influenza A virus (A/Viet Nam/HN/2004(H5N1))
# HLA-B*27:05 = experiment: as above
# HLA-B*18:01 [12] = experiment: as above; conditions: source organism: Camelpox virus M-96
# HLA-B*39:01 = experiment: as above; conditions: source organism: Camelpox virus M-96
# HLA-B*40:01 [13] = experiment: IEDB peptide-MHC binding, purified MHC/competitive/fluorescence; filed as Kd, often an IC50 or EC50 that approximates it; ≥ and ≤ were set here for values at or beyond the usual limits of such assays; conditions: source organism: Vaccinia virus L-IPV
# HLA-B*48:01 = experiment: as above; conditions: source organism: Vaccinia virus L-IPV
# [14] = source organism: Marburg virus - Musoke, Kenya, 1980
# [15] = source organism: Vaccinia virus WR
# [16] = source organism: Mycobacterium tuberculosis
# [17] = source organism: Influenza A virus (A/Viet Nam/HN/2004(H5N1))
# [18] = source organism: Giardia lamblia ATCC 50803
# [19] = source organism: Camelpox virus M-96
sequence,measurement,setting,value
WVDSTPPPG,Kd,HLA-A*80:01; source organism: Homo sapiens,≥ 20 µM
same,Kd,HLA-A*01:01 [1],11.6 µM
KTWAYHGSY,Kd,HLA-A*80:01; source organism: dengue virus type 3,3 µM
same,Kd,HLA-B*15:01 [2],0.00288 µM
same,Kd,HLA-A*32:01,0.00506 µM
same,Kd,HLA-B*57:01 [3],0.00457 µM
same,Kd,HLA-A*30:02,4.05 µM
GFPSLESSF,Kd,HLA-A*68:02; [14],≥ 20 µM
same,Kd,"HLA-B*08:01; source organism: Ravn virus - Ravn, Kenya, 1987",≥ 20 µM
same,Kd,HLA-A*69:01; [14],≥ 20 µM
same,Kd,HLA-A*26:03,≥ 20 µM
same,Kd,HLA-A*02:01 [4]; [14],≥ 20 µM
same,Kd,HLA-B*07:02; [14],≥ 20 µM
same,Kd,HLA-A*31:01; [14],≥ 20 µM
same,Kd,HLA-B*57:01 [5]; [14],≥ 20 µM
same,Kd,HLA-A*01:01 [6]; [14],≥ 20 µM
same,Kd,HLA-A*24:03; [14],0.0395 µM
same,Kd,HLA-B*58:01; [14],≥ 20 µM
same,Kd,HLA-A*11:01; [14],≥ 20 µM
same,Kd,HLA-A*24:02; [14],0.26 µM
same,Kd,HLA-B*15:17; [14],≥ 20 µM
same,Kd,HLA-A*23:01,0.0555 µM
same,Kd,HLA-B*08:03,≥ 20 µM
same,Kd,HLA-B*18:01 [7],0.263 µM
same,Kd,HLA-B*15:01 [8],≥ 20 µM
same,Kd,HLA-B*35:01; source organism: Orthomarburgvirus marburgense,0.877 µM
same,Kd,HLA-A*02:06,2.92 µM
same,Kd,HLA-A*26:02,≥ 20 µM
FTSSFYNYV,Kd,HLA-C*12:03,≤ 0.001 µM
same,Kd,HLA-C*08:02,0.818 µM
same,Kd,HLA-C*04:01; [15],≥ 20 µM
same,Kd,HLA-C*06:02,0.089 µM
same,Kd,HLA-C*15:02,0.019 µM
same,Kd,HLA-A*02:01 [9]; [15],0.0046 µM
KTVCVQATK,Kd,HLA-A*80:01; [16],≥ 20 µM
same,Kd,HLA-A*01:01 [6]; [16],≥ 20 µM
HADDIPVPV,Kd,HLA-C*04:01; source organism: Escherichia coli B171,≥ 20 µM
same,Kd,HLA-C*05:01,0.004 µM
same,Kd,HLA-A*02:01 [9]; source organism: Escherichia coli,0.0649 µM
RNEQGQTLW,Kd,HLA-A*03:01; [17],≥ 20 µM
same,Kd,HLA-B*08:01; [17],≥ 20 µM
same,Kd,HLA-B*44:02; [17],≥ 20 µM
same,Kd,HLA-B*40:01 [10]; [17],≥ 20 µM
same,Kd,HLA-A*02:01 [4]; [17],≥ 20 µM
same,Kd,HLA-B*15:01 [11]; [17],≥ 20 µM
same,Kd,HLA-B*07:02; [17],≥ 20 µM
same,Kd,HLA-A*31:01; [17],≥ 20 µM
same,Kd,HLA-B*46:01,≥ 20 µM
same,Kd,HLA-A*01:01 [6]; [17],≥ 20 µM
same,Kd,HLA-B*27:05; [17],≥ 20 µM
same,Kd,HLA-B*58:01; [17],0.0718 µM
same,Kd,HLA-A*11:01; [17],≥ 20 µM
same,Kd,HLA-A*24:02; [17],≥ 20 µM
IFPSMYFLM,Kd,HLA-A*24:02; source organism: Entamoeba histolytica HM-1:IMSS,0.002 µM
ETKKRMDYF,Kd,HLA-A*03:01; [18],≥ 20 µM
same,Kd,HLA-B*08:01; [18],1.56 µM
same,Kd,HLA-B*44:02; [18],≥ 20 µM
same,Kd,HLA-B*40:01 [10]; [18],≥ 20 µM
same,Kd,HLA-A*02:01 [4]; [18],≥ 20 µM
same,Kd,HLA-B*15:01 [11]; [18],≥ 20 µM
same,Kd,HLA-B*07:02; [18],≥ 20 µM
same,Kd,HLA-A*01:01 [6]; [18],≥ 20 µM
same,Kd,HLA-B*27:05; [18],≥ 20 µM
same,Kd,HLA-B*58:01; [18],≥ 20 µM
same,Kd,HLA-A*24:02; [18],≥ 20 µM
SHEQGDIAL,Kd,HLA-A*68:02; [19],≥ 20 µM
same,Kd,HLA-B*18:01 [12],≥ 20 µM
same,Kd,HLA-A*69:01; [19],≥ 20 µM
same,Kd,HLA-A*02:01 [4]; [19],≥ 20 µM
same,Kd,HLA-B*15:01 [11]; [19],≥ 20 µM
same,Kd,HLA-B*07:02; [19],≥ 20 µM
same,Kd,HLA-B*57:01 [5]; [19],≥ 20 µM
same,Kd,HLA-A*01:01 [6]; [19],≥ 20 µM
same,Kd,HLA-B*27:05; [19],≥ 20 µM
same,Kd,HLA-B*58:01; [19],≥ 20 µM
same,Kd,HLA-B*39:01,0.0925 µM
same,Kd,HLA-B*15:17; [19],≥ 20 µM
same,Kd,HLA-B*40:01 [13],≥ 20 µM
same,Kd,HLA-B*48:01,≥ 20 µM
same,Kd,HLA-B*35:01; source organism: Vaccinia virus L-IPV,2.3 µM
LFPELDCFF,Kd,HLA-C*04:01; source organism: Kurkino virus,≥ 20 µM
same,Kd,HLA-A*24:03; source organism: Orthohantavirus dobravaense,0.011 µM
MYMALIAAF,Kd,HLA-C*04:01; source organism: Yellow fever virus,≥ 20 µM
